In the supplement of paper PMC5998384:

Tests used:
HeLa Kyoto [1] = assay: melting temperature (median over replicates), in situ; higher = more thermally stable
HeLa Kyoto [2] = assay: solubility change mitosis vs G1/S (difference of NP-40 vs SDS log2 ratios) (log2 ratio difference); higher = more soluble in mitosis
HeLa Kyoto [3] = assay: thermal stability score vs G1/S (z-score of summed log2 fold changes over temperatures); higher = more thermally stable than in G1/S
HeLa Kyoto [4] = assay: solubility in G1/S (NP-40 vs SDS abundance) (log2 ratio); higher = more soluble; conditions: cell cycle stage: G1/S
[5] = cell cycle stage: early G1 (4.5 h after nocodazole release)
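For melting temperature (median over replicates), in situ in this document: HeLa Kyoto cells synchronized by double thymidine or nocodazole block, proteins quantified by TMT10plex mass spectrometry, three independent biological replicates.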
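For solubility change mitosis vs G1/S (difference of NP-40 vs SDS log2 ratios) in this document: synchronized HeLa Kyoto cells (double thymidine block for G1/S, nocodazole release for mitosis), protein amounts in NP-40 versus SDS lysates quantified by mass spectrometry, three biological replicates.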
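For solubility in G1/S (NP-40 vs SDS abundance) in this document: HeLa Kyoto cells arrested at G1/S by double thymidine block, proteins quantified by TMT10plex mass spectrometry in mild NP-40 versus SDS extracts, three biological replicates.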
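For thermal stability score vs G1/S (z-score of summed log2 fold changes over temperatures) in this document: synchronized HeLa Kyoto cells, proteins quantified by TMT10plex mass spectrometry, three biological replicates, mitosis taken 0.5 h after nocodazole release, G1/S directly after double thymidine block.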

Chain of YES1 (chain, as listed by the source): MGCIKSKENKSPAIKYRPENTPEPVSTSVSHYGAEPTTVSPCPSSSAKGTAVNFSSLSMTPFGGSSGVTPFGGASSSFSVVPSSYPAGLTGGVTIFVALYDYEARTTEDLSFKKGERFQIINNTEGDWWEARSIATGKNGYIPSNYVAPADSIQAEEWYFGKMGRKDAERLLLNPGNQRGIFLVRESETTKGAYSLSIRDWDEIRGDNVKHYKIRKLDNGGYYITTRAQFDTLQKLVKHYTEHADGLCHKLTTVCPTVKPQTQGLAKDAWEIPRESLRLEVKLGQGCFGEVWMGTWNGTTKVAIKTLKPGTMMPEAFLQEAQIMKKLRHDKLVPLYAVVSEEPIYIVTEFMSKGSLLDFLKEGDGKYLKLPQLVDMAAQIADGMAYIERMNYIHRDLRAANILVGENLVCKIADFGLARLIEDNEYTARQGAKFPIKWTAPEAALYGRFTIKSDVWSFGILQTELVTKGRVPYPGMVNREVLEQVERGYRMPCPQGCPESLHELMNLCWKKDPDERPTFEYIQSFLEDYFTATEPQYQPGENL

Substance	melting temperature (HeLa Kyoto [1]; cell cycle stage: G1/S)	melting temperature (HeLa Kyoto [1]; cell cycle stage: mitosis)	solubility change mitosis (log2) (HeLa Kyoto [2])	thermal stability score (HeLa Kyoto [3]; [5])	thermal stability score (HeLa Kyoto [3]; cell cycle stage: mitosis)	solubility in G1/S (log2) (HeLa Kyoto [4])
MKSLKAKFRKSDTNEWNKNDDRLLQAVENGDAEKVASLLGKKGASATKHDSEGKTAFHLAAAKGHVECLRVMITHGVDVTAQDTTGHSALHLAAKNSHHECIRKLLQSKCPAESVDSSGKTALHYAAAQGCLQAVQILCEHKSPINLKDLDGNIPLLLAVQNGHSEICHFLLDHGADVNSRNKSGRTALMLACEIGSSNAVEALIKKGADLNLVDSLGYNALHYSKLSENAGIQSLLLSKISQDADLKTPTKPKQHDQVSKISSERSGTPKKRKAPPPPISPTQLSDVSSPRSITSTPLSGKESVFFAEPPFKAEISSIRENKDRLSDSTTGADSLLDISSEADQQDLLSLLQAKVASLTLHNKELQDKLQAKSPKEAEADLSFDSYHSTQTDLGPSLGKPGETSPPDSKSSPSVLIHSLGKSTTDNDVRIQQLQEILQDLQKRLESSEAERKQLQVELQSRRAELVCLNNTEISENSSDLSQKLKETQSKYEEAMKEVLSVQKQMKLGLVSPESMDNYSHFHELRVTEEEINVLKQDLQNALEESERNKEKVRELEEKLVEREKGTVIKPPVEEYEEMKSSYCSVIENMNKEKAFLFEKYQEAQEEIMKLKDTLKSQMTQEASDEAEDMKEAMNRMIDELNKQVSELSQLYKEAQAELEDYRKRKSLEDVTAEYIHKAEHEKLMQLTNVSRAKAEDALSEMKSQYSKVLNELTQLKQLVDAQKENSVSITEHLQVITTLRTAAKEMEEKISNLKEHLASKEVEVAKLEKQLLEEKAAMTDAMVPRSSYEKLQSSLESEVSVLASKLKESVKEKEKVHSEVVQIRSEVSQVKREKENIQTLLKSKEQEVNELLQKFQQAQEELAEMKRYAESSSKLEEDKDKKINEMSKEVTKLKEALNSLSQLSYSTSSSKRQSQQLEALQQQVKQLQNQLAECKKQHQEVISVYRMHLLYAVQGQMDEDVQKVLKQILTMCKNQSQKK [RAI14]	49.7 °C	50 °C	0.267	0.622	0.688	-0.263
MPEIVDTCSLASPASVCRTKHLHLRCSVDFTRRTLTGTAALTVQSQEDNLRSLVLDTKDLTIEKVVINGQEVKYALGERQSYKGSPMEISLPIALSKNQEIVIEISFETSPKSSALQWLTPEQTSGKEHPYLFSQCQAIHCRAILPCQDTPSVKLTYTAEVSVPKELVALMSAIRDGETPDPEDPSRKIYKFIQKVPIPCYLIALVVGALESRQIGPRTLVWSEKEQVEKSAYEFSETESMLKIAEDLGGPYVWGQYDLLVLPPSFPYGGMENPCLTFVTPTLLAGDKSLSNVIAHEISHSWTGNLVTNKTWDHFWLNEGHTVYLERHICGRLFGEKFRHFNALGGWGELQNSVKTFGETHPFTKLVVDLTDIDPDVAYSSVPYEKGFALLFYLEQLLGGPEIFLGFLKAYVEKFSYKSITTDDWKDFLYSYFKDKVDVLNQVDWNAWLYSPGLPPIKPNYDMTLTNACIALSQRWITAKEDDLNSFNATDLKDLSSHQLNEFLAQTLQRAPLPLGHIKRMQEVYNFNAINNSEIRFRWLRLCIQSKWEDAIPLALKMATEQGRMKFTRPLFKDLAAFDKSHDQAVRTYQEHKASMHPVTAMLVGKDLKVD [LTA4H]	53 °C	53 °C	-0.173	1.7	0.372	0.0608
MLYLIGLGLGDAKDITVKGLEVVRRCSRVYLEAYTSVLTVGKEALEEFYGRKLVVADREEVEQEADNILKDADISDVAFLVVGDPFGATTHSDLVLRATKLGIPYRVIHNASIMNAVGCCGLQLYKFGETVSIVFWTDTWRPESFFDKVKKNRQNGMHTLCLLDIKVKEQSLENLIKGRKIYEPPRYMSVNQAAQQLLEIVQNQRIRGEEPAVTEETLCVGLARVGADDQKIAAGTLRQMCTVDLGEPLHSLIITGGSIHPMEMEMLSLFSIPENSSESQSINGL [DPH5]	54.6 °C	55.3 °C	-0.136	1.75	1.39	0.11
SPEN	49 °C	50.4 °C	0.433	1.63	4.49	-0.619
MTCWLRGVTATFGRPAEWPGYLSHLCGRSAAMDLGPMRKSYRGDREAFEETHLTSLDPVKQFAAWFEEAVQCPDIGEANAMCLATCTRDGKPSARMLLLKGFGKDGFRFFTNFESRKGKELDSNPFASLVFYWEPLNRQVRVEGPVKKLPEEEAECYFHSRPKSSQIGAVVSHQSSVIPDREYLRKKNEELEQLYQDQEVPKPKSWGGYVLYPQVMEFWQGQTNRLHDRIVFRRGLPTGDSPLGPMTHRGEEDWLYERLAP [PNPO]	53.5 °C	54.3 °C	-0.0358	-1.68	-1.82	0.682
MELCGLGLPRPPMLLALLLATLLAAMLALLTQVALVVQVAEAARAPSVSAKPGPALWPLPLLVKMTPNLLHLAPENFYISHSPNSTAGPSCTLLEEAFRRYHGYIFGFYKWHHEPAEFQAKTQVQQLLVSITLQSECDAFPNISSDESYTLLVKEPVAVLKANRVWGALRGLETFSQLVYQDSYGTFTINESTIIDSPRFSHRGILIDTSRHYLPVKIILKTLDAMAFNKFNVLHWHIVDDQSFPYQSITFPELSNKGSYSLSHVYTPNDVRMVIEYARLRGIRVLPEFDTPGHTLSWGKGQKDLLTPCYSRQNKLDSFGPINPTLNTTYSFLTTFFKEISEVFPDQFIHLGGDEVEFKCWESNPKIQDFMRQKGFGTDFKKLESFYIQKVLDIIATINKGSIVWQEVFDDKAKLAPGTIVEVWKDSAYPEELSRVTASGFPVILSAPWYLDLISYGQDWRKYYKVEPLDFGGTQKQKQLFIGGEACLWGEYVDATNLTPRLWPRASAVGERLWSSKDVRDMDDAYDRLTRHRCRMVERGIAAQPLYAGYCNHENM [HEXB]	56.7 °C	58 °C	0.0247	-1.76	-0.878	0.38
SON	47.4 °C	49.4 °C	1.3	0.322	4.26	-1.78
MNVTPEVKSRGMKFAEEQLLKHGWTQGKGLGRKENGITQALRVTLKQDTHGVGHDPAKEFTNHWWNELFNKTAANLVVETGQDGVQIRSLSKETTRYNHPKPNLLYQKFVKMATLTSGGEKPNKDLESCSDDDNQGSKSPKILTDEMLLQACEGRTAHKAARLGITMKAKLARLEAQEQAFLARLKGQDPGAPQLQSESKPPKKKKKKRRQKEEEEATASERNDADEKHPEHAEQNIRKSKKKKRRHQEGKVSDEREGTTKGNEKEDAAGTSGLGELNSREQTNQSLRKGKKKKRWHHEEEKMGVLEEGGKGKEAAGSVRTEEVESRAYADPCSRRKKRQQQEEEDLNLEDRGEETVLGGGTREAESRACSDGRSRKSKKKRQQHQEEEDILDVRDEKDGGAREAESRAHTGSSSRGKRKRQQHPKKERAGVSTVQKAKKKQKKRD [GPATCH4]	47.5 °C	48.6 °C	0.885	1.12	2.93	-1.28
MADGKAGDEKPEKSQRAGAAGGPEEEAEKPVKTKTVSSSNGGESSSRSAEKRSAEEEAADLPTKPTKISKFGFAIGSQTTKKASAISIKLGSSKPKETVPTLAPKTLSVAAAFNEDEDSEPEEMPPEAKMRMKNIGRDTPTSAGPNSFNKGKHGFSDNQKLWERNIKSHLGNVHDQDN [PCNP]	59.4 °C	53.8 °C	0.0732	-1.76	-6.06	0.559
MAAAEPSPRRVGFVGAGRMAGAIAQGLIRAGKVEAQHILASAPTDRNLCHFQALGCRTTHSNQEVLQSCLLVIFATKPHVLPAVLAEVAPVVTTEHILVSVAAGVSLSTLEELLPPNTRVLRVLPNLPCVVQEGAIVMARGRHVGSSETKLLQHLLEACGRCEEVPEAYVDIHTGLSGSGVAFVCAFSEALAEGAVKMGMPSSLAHRIAAQTLLGTAKMLLHEGQHPAQLRSDVCTPGGTTIYGLHALEQGGLRAATMSAVEAATCRAKELSRK [PYCRL]	53.5 °C	55.3 °C	0.0528	-1.28	-1.85	0.155
MESALPAAGFLYWVGAGTVAYLALRISYSLFTALRVWGVGNEAGVGPGLGEWAVVTGSTDGIGKSYAEELAKHGMKVVLISRSKDKLDQVSSEIKEKFKVETRTIAVDFASEDIYDKIKTGLAGLEIGILVNNVGMSYEYPEYFLDVPDLDNVIKKMININILSVCKMTQLVLPGMVERSKGAILNISSGSGMLPVPLLTIYSATKTFVDFFSQCLHEEYRSKGVFVQSVLPYFVATKLAKIRKPTLDKPSPETFVKSAIKTVGLQSRTNGYLIHALMGSIISNLPSWIYLKIVMNMNKSTRAHYLKKTKKN [HSD17B12]	53.9 °C	53.7 °C	-0.194	-1.05	-1.18	0.079
MAMLRVQPEAQAKVDVFREDLCTKTENLLGSYFPKKISELDAFLKEPALNEANLSNLKAPLDIPVPDPVKEKEKEERKKQQEKEDKDEKKKGEDEDKGPPCGPVNCNEKIVVLLQRLKPEIKDVIEQLNLVTTWLQLQIPRIEDGNNFGVAVQEKVFELMTSLHTKLEGFHTQISKYFSERGDAVTKAAKQPHVGDYRQLVHELDEAEYRDIRLMVMEIRNAYAVLYDIILKNFEKLKKPRGETKGMIY [PSME1]	52.4 °C	53.8 °C	0.0323	-2.91	-1.23	0.819
MDETSPLVSPERAQPPDYTFPSGSGAHFPQVPGGAVRVAAAAGSGPSPPGSPGHDRERQPLLDRARGAAAQGQTQTVAAQAQALAAQAAAAAHAAQAHRERNEFPEDPEFEAVVRQAELAIERCIFPERIYQGSSGSYFVKDPQGRIIAVFKPKNEEPYGHLNPKWTKWLQKLCCPCCFGRDCLVLNQGYLSEAGASLVDQKLELNIVPRTKVVYLASETFNYSAIDRVKSRGKRLALEKVPKVGQRFNRIGLPPKVGSFQLFVEGYKDADYWLRRFEAEPLPENTNRQLLLQFERLVVLDYIIRNTDRGNDNWLIKYDCPMDSSSSRDTDWVVVKEPVIKVAAIDNGLAFPLKHPDSWRAYPFYWAWLPQAKVPFSQEIKDLILPKISDPNFVKDLEEDLYELFKKDPGFDRGQFHKQIAVMRGQILNLTQALKDNKSPLHLVQMPPVIVETARSHQRSSSESYTQSFQSRKPFFSWW [PI4K2A]	53.9 °C	53.6 °C	-0.137	1.81	-1.09	0.202
UBR5	47.5 °C	49.8 °C	-0.155	1.78	5.42	-0.142
YES1	51.2 °C	50.9 °C	0.0165	0.418	0.409	-0.536
MSEVTRSLLQRWGASFRRGADFDSWGQLVEAIDEYQILARHLQKEAQAQHNNSEFTEEQKKTIGKIATCLELRSAALQSTQSQEEFKLEDLKKLEPILKNILTYNKEFPFDVQPVPLRRILAPGEEENLEFEEDEEEGGAGAGSPDSFPARVPGTLLPRLPSEPGMTLLTIRIEKIGLKDAGQCIDPYITVSVKDLNGIDLTPVQDTPVASRKEDTYVHFNVDIELQKHVEKLTKGAAIFFEFKHYKPKKRFTSTKCFAFMEMDEIKPGPIVIELYKKPTDFKRKKLQLLTKKPLYLHLHQTLHKE [AIDA]	50.9 °C	50.5 °C	0.0508	-0.484	-0.48	0.32
MEALSRAGQEMSLAALKQHDPYITSIADLTGQVALYTFCPKANQWEKTDIEGTLFVYRRSASPYHGFTIVNRLNMHNLVEPVNKDLEFQLHEPFLLYRNASLSIYSIWFYDKNDCHRIAKLMADVVEEETRRSQQAARDKQSPSQANGCSDHRPIDILEMLSRAKDEYERNQMGDSNISSPGLQPSTQLSNLGSTETLEEMPSGSQDKSAPSGHKHLTVEELFGTSLPKEQPAVVGLDSEEMERLPGDASQKEPNSFLPFPFEQLGGAPQSETLGVPSAAHHSVQPEITTPVLITPASITQSNEKHAPTYTIPLSPVLSPTLPAEAPTAQVPPSLPRNSTMMQAVKTTPRQRSPLLNQPVPELSHASLIANQSPFRAPLNVTNTAGTSLPSVDLLQKLRLTPQHDQIQTQPLGKGAMVASFSPAAGQLATPESFIEPPSKTAAARVAASASLSNMVLAPLQSMQQNQDPEVFVQPKVLSSAIPVAGAPLVTATTTAVSSVLLAPSVFQQTVTRSSDLERKASSPSPLTIGTPESQRKPSIILSKSQLQDTLIHLIKNDSSFLSTLHEVYLQVLTKNKDNHNL [DCP1A]	50.5 °C	50.9 °C	-0.0577	-0.228	1.27	0.265
